Measurements from PMC4109836, “Analysis of the co-operative interaction between the allosterically regulated proteins GK and GKRP using tryptophan fluorescence” (Biochemical Journal, 2014).
Like-named read-outs stand apart in the source and are kept apart here. Each block holds one molecule with its values, some of them ahead of it.

Tests used:
GKRP-WT [1] = molecular target: T1, GKRP-WT (Homo sapiens, UniProt Q14397); assay: Ligand binding to free GKRP-WT measured by TF of GKRP; conditions: ligand alone
T1 construct: FLAG; made in house; host or cells: Escherichia coli
T1 sequence (Q14397 1-625): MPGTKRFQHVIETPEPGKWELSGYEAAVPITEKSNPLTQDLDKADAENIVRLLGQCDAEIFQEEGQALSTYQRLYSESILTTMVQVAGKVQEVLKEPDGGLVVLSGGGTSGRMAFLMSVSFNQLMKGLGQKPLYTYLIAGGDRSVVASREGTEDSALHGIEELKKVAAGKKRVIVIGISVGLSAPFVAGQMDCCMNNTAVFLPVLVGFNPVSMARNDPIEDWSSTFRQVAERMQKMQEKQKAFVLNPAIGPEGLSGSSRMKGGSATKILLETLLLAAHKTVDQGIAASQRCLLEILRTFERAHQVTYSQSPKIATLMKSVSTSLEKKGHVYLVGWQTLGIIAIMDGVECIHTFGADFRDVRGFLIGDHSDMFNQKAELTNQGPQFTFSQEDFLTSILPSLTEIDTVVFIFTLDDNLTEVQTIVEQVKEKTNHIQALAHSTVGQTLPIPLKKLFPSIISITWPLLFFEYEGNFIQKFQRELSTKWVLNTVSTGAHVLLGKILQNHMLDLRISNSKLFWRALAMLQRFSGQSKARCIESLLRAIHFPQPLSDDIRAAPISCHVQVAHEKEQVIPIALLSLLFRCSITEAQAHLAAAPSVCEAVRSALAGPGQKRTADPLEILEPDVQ

GK-WT = molecular target: T2, GK-WT (Homo sapiens, UniProt P35557); parameters: method as in ref 4 (a number printed in a supplementary file, which may have a reference list of its own: not looked up in the article's list); conditions: cited from earlier work
T2 construct: GST (cleaved yes); made in house; host or cells: Escherichia coli
T2 sequence (P35557 1-465): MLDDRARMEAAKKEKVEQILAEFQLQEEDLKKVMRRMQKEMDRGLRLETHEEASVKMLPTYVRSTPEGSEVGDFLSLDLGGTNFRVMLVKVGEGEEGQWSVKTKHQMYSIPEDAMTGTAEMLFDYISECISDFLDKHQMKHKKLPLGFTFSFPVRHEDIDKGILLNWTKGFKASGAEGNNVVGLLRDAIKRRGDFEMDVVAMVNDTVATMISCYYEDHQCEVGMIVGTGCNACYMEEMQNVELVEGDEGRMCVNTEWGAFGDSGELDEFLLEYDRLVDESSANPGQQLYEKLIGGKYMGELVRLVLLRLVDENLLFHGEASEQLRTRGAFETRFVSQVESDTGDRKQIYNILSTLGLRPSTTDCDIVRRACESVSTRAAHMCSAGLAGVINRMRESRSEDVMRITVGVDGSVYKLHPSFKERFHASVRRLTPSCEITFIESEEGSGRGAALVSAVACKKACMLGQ

GKRP-WT [2] = molecular target: T3, GKRP-WT (Homo sapiens, UniProt P35557+Q14397, W167F/W257F/W99R); assay: Titration of GKRP-WT with GK-W99R/W167F/W257F (GK–GKRP complex assembly) by TF; type: binding; conditions: for Kd: read-out: S0.5 of GK;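 for all read-outs here: tryptophan fluorescence of GKRP titrated with GK, excitation 295 nm, emission read at 340 nm, phosphate buffer pH 7.2, Hill equation fitting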
T3 construct: FLAG; GST (cleaved yes); made in house; host or cells: Escherichia coli
T3 sequence (Q14397 1-625): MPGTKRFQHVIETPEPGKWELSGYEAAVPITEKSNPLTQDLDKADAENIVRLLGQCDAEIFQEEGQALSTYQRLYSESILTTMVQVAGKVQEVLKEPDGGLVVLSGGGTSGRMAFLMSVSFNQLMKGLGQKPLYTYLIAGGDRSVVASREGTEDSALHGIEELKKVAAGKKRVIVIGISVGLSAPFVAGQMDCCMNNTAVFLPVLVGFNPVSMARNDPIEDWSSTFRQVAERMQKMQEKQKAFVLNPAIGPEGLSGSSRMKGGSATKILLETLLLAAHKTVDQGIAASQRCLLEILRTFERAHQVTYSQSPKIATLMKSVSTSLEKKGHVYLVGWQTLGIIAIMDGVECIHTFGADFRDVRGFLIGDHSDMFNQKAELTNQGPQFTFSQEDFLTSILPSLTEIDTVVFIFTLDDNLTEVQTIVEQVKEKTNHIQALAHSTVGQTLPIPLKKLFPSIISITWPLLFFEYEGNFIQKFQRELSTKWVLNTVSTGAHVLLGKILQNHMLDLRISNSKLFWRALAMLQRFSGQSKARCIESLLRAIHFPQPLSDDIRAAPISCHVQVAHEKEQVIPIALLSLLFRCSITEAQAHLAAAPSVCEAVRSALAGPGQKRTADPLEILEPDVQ
T3 sequence (P35557 1-465 W99R/W167F/W257F): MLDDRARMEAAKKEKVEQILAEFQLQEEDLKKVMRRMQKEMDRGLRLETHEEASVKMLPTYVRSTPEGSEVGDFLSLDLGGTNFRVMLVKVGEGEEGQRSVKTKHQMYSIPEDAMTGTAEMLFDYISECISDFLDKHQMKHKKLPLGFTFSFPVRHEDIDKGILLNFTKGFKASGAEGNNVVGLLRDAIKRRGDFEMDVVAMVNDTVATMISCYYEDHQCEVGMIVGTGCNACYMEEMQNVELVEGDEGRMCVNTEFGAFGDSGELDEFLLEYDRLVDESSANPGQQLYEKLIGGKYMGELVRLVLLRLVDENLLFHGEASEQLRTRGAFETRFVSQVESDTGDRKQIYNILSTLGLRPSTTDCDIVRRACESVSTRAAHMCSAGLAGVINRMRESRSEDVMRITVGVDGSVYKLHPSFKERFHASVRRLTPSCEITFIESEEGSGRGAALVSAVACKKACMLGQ

[3] = GK titration with 20 μM GKA, 20°C
[4] = GK titration with 500 μM F1P, 20°C
[5] = GK titration with 500 μM F6P, sigmoidal fit, 20°C
[6] = GK titration with 500 μM F6P, simple saturation fit (H = 1)
[7] = GK titration with 100 mM D-glucose and 20 μM GKA, 20°C
[8] = GK titration with 100 mM D-glucose and 500 μM F1P, 20°C
[9] = GK titration with 100 mM D-glucose and 500 μM F6P, 20°C
[10] = GK titration with 100 mM D-glucose, 20°C
[11] = GK titration, no further agent, sigmoidal fit, 20°C
[12] = GK titration, no further agent, simple saturation fit (H = 1)

- ΔF (relative fluorescence change at 340 nm) (GKRP-WT [1]; 0.3 μM GKRP-WT, 20°C): 0
- effect on the TF signal of GKRP-WT (GKRP-WT [1]): no effect
Molecule: OC[C@H]1OC(O)[C@H](O)[C@@H](O)[C@@H]1O (stereo partly drawn) [D-Glucose, D-glucose]
- H (glucose) (GK-WT): 1.77
- glucose S0.5 (GK-WT): 7.5 mM

- H (GKRP-WT [2]; [3]): 3.4
- ΔF (GKRP-WT [2]; [3]): 0.42
- Kd (GKRP-WT [2]; [3]): 2770 nM
- H (GKRP-WT [2]; [4]): 2.8
- ΔF (GKRP-WT [2]; [4]): 0.32
- Kd (GKRP-WT [2]; [4]): 2680 nM
- H (GKRP-WT [2]; [5]): 1.71
- ΔF (GKRP-WT [2]; [5]): 0.31
- Kd (GKRP-WT [2]; [5]): 1200 nM
- H (GKRP-WT [2]; GK titration with 500 μM F6P, simple saturation fit): 1
- ΔF (GKRP-WT [2]; [6]): 0.43
- Kd (GKRP-WT [2]; [6]): 1840 nM
- H (GKRP-WT [2]; [7]): 3.2
- ΔF (GKRP-WT [2]; [7]): 0.42
- Kd (GKRP-WT [2]; [7]): 4750 nM
- H (GKRP-WT [2]; [8]): 2.25
- Kd (GKRP-WT [2]; [8]): 3300 nM
- H (GKRP-WT [2]; [9]): 2.83
- ΔF (GKRP-WT [2]; [9]): 0.35
- Kd (GKRP-WT [2]; [9]): 2430 nM
- H (GKRP-WT [2]; [10]): 2.78
- ΔF (GKRP-WT [2]; [10]): 0.42
- Kd (GKRP-WT [2]; [10]): 2560 nM
- H (GKRP-WT [2]; [11]): 1.74
- ΔF (GKRP-WT [2]; [11]): 0.29
- Kd (GKRP-WT [2]; GK titration, no further agent, sigmoidal fit, 20°C, listed as GK): ~1200 nM
- Kd (GKRP-WT [2]; [11]): 1220 nM
- H (GKRP-WT [2]; GK titration, no further agent, simple saturation fit): 1
- ΔF (GKRP-WT [2]; [12]): 0.39
- Kd (GKRP-WT [2]; [12]): 1850 nM
- maximal ΔTF value of GKRP-WT (GKRP-WT [2]; range depending on the assay conditions): 0.29–0.42
- increase of the TF of GKRP-WT (GKRP-WT [2]; saturating GK (5 μM), 0.3 μM GKRP): 29%
- S0.5 value of GK with GKRP-WT lower than with GKRP-P446L (on average) (GKRP-WT [2]; with and without F6P): 35%
B1: GK-W99R/W167F/W257F: tryptophan residue-free, non-fluorescent recombinant human β-cell GK made for the present study (protein)
chain: MLDDRARMEAAKKEKVEQILAEFQLQEEDLKKVMRRMQKEMDRGLRLETHEEASVKMLPTYVRSTPEGSEVGDFLSLDLGGTNFRVMLVKVGEGEEGQRSVKTKHQMYSIPEDAMTGTAEMLFDYISECISDFLDKHQMKHKKLPLGFTFSFPVRHEDIDKGILLNFTKGFKASGAEGNNVVGLLRDAIKRRGDFEMDVVAMVNDTVATMISCYYEDHQCEVGMIVGTGCNACYMEEMQNVELVEGDEGRMCVNTEFGAFGDSGELDEFLLEYDRLVDESSANPGQQLYEKLIGGKYMGELVRLVLLRLVDENLLFHGEASEQLRTRGAFETRFVSQVESDTGDRKQIYNILSTLGLRPSTTDCDIVRRACESVSTRAAHMCSAGLAGVINRMRESRSEDVMRITVGVDGSVYKLHPSFKERFHASVRRLTPSCEITFIESEEGSGRGAALVSAVACKKACMLGQ
modifications: left off: GST, end not stated, cleaved
notes: tryptophan residue-free, non-fluorescent recombinant human β-cell GK made for the present study
